Data published in article PMC3706390.

What was measured:
Experiment in all cases: EMSA
Conditions in all cases: 30 mM Tris-HCl pH 8.0, 75 mM KCl, 5 mM MgCl2, 1 mM DTT, 0.04 ug/uL BSA, 10% glycerol, 50 ng/uL yeast tRNA, 30 C 15 min; EMSA gels 0.5X TBE at 4 C; RNase …
L30 K36A K36A (rat) = L30 K36A K36A (rat) (UniProt P62890)
L30 L35A L35A (rat) = L30 L35A L35A (rat) (UniProt P62890)
L30 K87A K87A (rat) = L30 K87A K87A (rat) (UniProt P62890)
L30 Y89A Y89A (rat) = L30 Y89A Y89A (rat) (UniProt P62890)

Substance: PHGPx SECIS 102 nt (REMSA)
- binding signal (% of WT binding) (L30 K36A K36A (rat)): 78
- binding signal (% of WT binding) (L30 L35A L35A (rat)): 86
- binding signal (% of WT binding) (L30 K87A K87A (rat)): 60
- binding signal (% of WT binding) (L30 Y89A Y89A (rat)): 32
